Measured values as given in US8987192B2, “Potent and selective mediators of cholesterol efflux” (The Regents of the University of California, priority 2006, dated 2015).
“Also recorded” adds a separate entry of the source. Where no end group is shown, it is not given here. [ ]: non-standard residue; d: D form.

What was measured:
ABCA1 [1] = molecular target: ABCA1 (Mus musculus, UniProt P41233); test: Cholesterol efflux from [3H]cholesterol-labeled ABCA1-expressing J774 mouse macrophages; format: cell-based; design: to upregulate cellular ABCA1 protein; endogenous in cells; host or cells: J774 mouse macrophages; details: for cholesterol efflux from macrophages not induced for ABCA1 (non-specific): no cAMP; for efficiency of ABCA1 cholesterol efflux (concentration dependence): concentration dependence curves; for ABCA1-dependent cholesterol efflux: macrophages with vs without cAMP; for capacity to stimulate cholesterol efflux at 3 μg/ml: 3 μg/ml lipid-free peptide, ABCA1-expressing macrophages
Protocol: In some embodiments, a polypeptide known to mediate cholesterol efflux (e.g., helix 9/10 of Apo A-I) is used to screen for additional mediators of cholesterol efflux in a cell based assay. For example, cell lines in which cholesterol efflux can be enhanced using a cAMP analog that up-regulates ABCA1 protein expression (e.g., J774 macrophages) can conveniently be used to assess the ability of a polypeptide of the present invention to mediate cholesterol efflux. The cells are incubated with labeled cholesterol (e.g., [^3H]cholesterol) under conditions appropriate for cholesterol uptake by the cells. Thus, cAMP or cAMP analogs (e.g., CPT-cAMP) are incubated with the cells for a suitable time before the initiation of cellular cholesterol efflux, i.e., prior to contacting the cells with a test polypeptide. Measurement of labeled cholesterol appearing in the medium is used to determine the cholesterol efflux mediating activity of the test polypeptide.
J774 mouse macrophages labeled with [^3H]cholesterol were treated (20 h) with 22-hydroxycholesterol (10 μM)/cis-retinoic acid (10 μM) to upregulate cellular ABCA1 protein.
Mouse macrophages were labeled with [^3H]cholesterol and treated with a cAMP analog to induce ABCA1 expression. […] Km values were calculated using the Michaelis-Menton equation and GraphPad Prism4 software.
Inverted sequence peptides synthesized with all L-amino acids and all D-amino acids were tested for cholesterol efflux activity using ABCA1 expressing J774 macrophages.
Two peptide analogs were engineered; the first replacing glutamic acid residues (E) at position 8 and 15 with aspartic acid residues (D), i.e., E8, 15>D polypeptides, and the second, replacing E1, 7, 8, 15, 18, 19 with D, i.e., all D (Asp) polypeptide. Cholesterol efflux activity was determined using J774 macrophages treated with and without a cAMP analog to modulate ABCA1 expression.
The impact of the A12>L substitution was also tested for activity, which also expanded non-polar surface area.
1-palmitoyl-2-oleoyl-phosphatidylcholine (POPC) was used to evaluate the cholesterol efflux properties of a formulated polypeptide of the present invention. […] To test cholesterol efflux activity, J774 mouse macrophages were labeled with [^3H]cholesterol and treated with and without cAMP to modulate ABCA1 expression.

ABCA1 [2] = test: Cholesterol efflux in the absence and presence of ABCA1 (mouse macrophages and HeLa cells transfected with ABCA1 cDNA); format: cell-based; details: 8 hours, saturating peptide >30-fold Km; for requirement of ABCA1 for cholesterol efflux activity: mouse macrophages and ABCA1-transfected HeLa
Source text: The large excess of polypeptide was provided to determine the extent (if any) of non-specific efflux, in the absence of ABCA1 induction.

[3] = scaled values = (raw log(P) + 2.061)/4.484; cited from earlier work
[4] = molecular target: ABCA1 of J774 mouse macrophages (mouse, UniProt P41233 1-2261); test: cell-based or functional assay
ABCA1 of J774 mouse macrophages, sequence (P41233 whole entry): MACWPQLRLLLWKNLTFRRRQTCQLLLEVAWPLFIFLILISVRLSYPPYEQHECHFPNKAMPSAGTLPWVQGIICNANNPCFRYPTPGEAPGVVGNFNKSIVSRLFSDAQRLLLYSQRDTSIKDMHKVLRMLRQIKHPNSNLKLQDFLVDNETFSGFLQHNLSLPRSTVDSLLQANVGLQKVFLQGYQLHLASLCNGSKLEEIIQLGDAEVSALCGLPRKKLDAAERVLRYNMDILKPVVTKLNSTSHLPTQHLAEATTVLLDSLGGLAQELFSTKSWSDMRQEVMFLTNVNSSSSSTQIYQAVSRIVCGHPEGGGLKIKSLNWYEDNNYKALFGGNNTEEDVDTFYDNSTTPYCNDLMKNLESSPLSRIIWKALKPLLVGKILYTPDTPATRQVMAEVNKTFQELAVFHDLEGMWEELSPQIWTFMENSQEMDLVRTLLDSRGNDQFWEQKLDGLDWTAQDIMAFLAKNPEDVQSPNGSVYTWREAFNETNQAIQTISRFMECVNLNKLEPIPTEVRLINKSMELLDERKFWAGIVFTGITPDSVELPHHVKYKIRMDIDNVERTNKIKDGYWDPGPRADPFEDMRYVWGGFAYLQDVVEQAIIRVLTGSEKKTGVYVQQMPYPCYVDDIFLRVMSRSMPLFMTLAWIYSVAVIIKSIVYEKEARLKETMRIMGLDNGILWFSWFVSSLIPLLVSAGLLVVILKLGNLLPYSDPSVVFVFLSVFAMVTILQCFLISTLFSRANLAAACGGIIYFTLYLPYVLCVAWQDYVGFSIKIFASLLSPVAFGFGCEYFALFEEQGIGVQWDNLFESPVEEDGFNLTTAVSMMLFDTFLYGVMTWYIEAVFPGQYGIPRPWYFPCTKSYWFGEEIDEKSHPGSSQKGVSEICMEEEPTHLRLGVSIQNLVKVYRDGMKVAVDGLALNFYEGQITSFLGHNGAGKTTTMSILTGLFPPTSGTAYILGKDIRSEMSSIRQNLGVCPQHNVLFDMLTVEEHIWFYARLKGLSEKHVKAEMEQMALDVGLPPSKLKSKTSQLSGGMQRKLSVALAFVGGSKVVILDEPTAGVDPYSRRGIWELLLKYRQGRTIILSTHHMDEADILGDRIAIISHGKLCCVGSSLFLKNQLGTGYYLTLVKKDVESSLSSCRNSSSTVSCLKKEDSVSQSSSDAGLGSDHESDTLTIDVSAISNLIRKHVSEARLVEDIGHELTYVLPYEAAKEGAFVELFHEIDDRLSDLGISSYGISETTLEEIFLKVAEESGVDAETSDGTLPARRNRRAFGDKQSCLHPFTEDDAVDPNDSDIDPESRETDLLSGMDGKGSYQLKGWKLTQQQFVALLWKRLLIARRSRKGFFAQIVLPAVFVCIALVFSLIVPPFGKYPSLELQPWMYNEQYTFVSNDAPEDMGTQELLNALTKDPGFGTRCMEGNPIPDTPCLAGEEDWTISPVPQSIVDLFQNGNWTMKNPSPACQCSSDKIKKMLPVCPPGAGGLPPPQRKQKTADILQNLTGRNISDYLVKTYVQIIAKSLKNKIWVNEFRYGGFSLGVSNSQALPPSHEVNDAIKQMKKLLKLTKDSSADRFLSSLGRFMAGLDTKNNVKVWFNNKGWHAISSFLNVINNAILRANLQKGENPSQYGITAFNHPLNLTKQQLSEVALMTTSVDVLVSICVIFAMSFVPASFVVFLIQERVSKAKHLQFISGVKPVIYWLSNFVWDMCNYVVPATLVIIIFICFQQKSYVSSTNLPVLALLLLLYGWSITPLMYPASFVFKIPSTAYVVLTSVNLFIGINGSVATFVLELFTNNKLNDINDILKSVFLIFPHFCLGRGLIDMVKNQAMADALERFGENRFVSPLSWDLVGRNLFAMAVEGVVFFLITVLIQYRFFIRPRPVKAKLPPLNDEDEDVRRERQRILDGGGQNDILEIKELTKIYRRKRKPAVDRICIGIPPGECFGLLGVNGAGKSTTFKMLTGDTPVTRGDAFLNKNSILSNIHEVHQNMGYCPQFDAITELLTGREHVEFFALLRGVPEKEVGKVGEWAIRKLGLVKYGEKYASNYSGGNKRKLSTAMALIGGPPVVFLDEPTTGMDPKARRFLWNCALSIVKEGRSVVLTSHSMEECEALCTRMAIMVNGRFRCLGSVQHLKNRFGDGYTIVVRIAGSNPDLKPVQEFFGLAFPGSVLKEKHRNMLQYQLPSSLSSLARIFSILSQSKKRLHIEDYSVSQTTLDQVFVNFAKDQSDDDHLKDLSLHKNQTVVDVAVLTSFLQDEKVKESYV

ABCA1 (Mus musculus, UniProt P41233), sequence (P41233 whole entry): as above

Molecule	Hydrophobicity [3]	cholesterol efflux: concentration giving maximal efflux [4] [µg/mL]	also measured
Apo A-I: full-length Apolipoprotein AI, polypeptide comprising 243 amino acids			cholesterol efflux at low mass concentrations (ABCA1 [1]; increasing concentrations based on mass): largely ineffective; requirement of ABCA1 for cholesterol efflux activity (ABCA1 [2]): required ABCA1 for activity
N[C@@H](Cc1ccccc1)C(=O)O [Phenylalanine]	1.00		
N[C@@H](CCC(=O)O)C(=O)O [Glutamate]	0.043		
N[C@@H](Cc1c[nH]c2ccccc12)C(=O)O [Tryptophan]	0.878		
CSCC[C@H](N)C(=O)O [Methionine]	0.738		
C[C@H](N)C(=O)O [Alanine]	0.616		
NCC(=O)O [Glycine]	0.501		
N[C@@H](Cc1ccc(O)cc1)C(=O)O [Tyrosine]	0.880		
N[C@@H](Cc1c[nH]cn1)C(=O)O [Histidine]	0.165		
N=C(N)NCCC[C@H](N)C(=O)O [Arginine]	0.000		
EVRSKLEEWFAAFREFFEEFLARLKS (S1 amphipathic alpha-helix polypeptide core sequence selectively binds HDL, high-affinity ligand for ATP- binding cassette transporter A1 (ABCA1), ABCA1-lipid cholesterol efflux, ABCA1-stablization, anti-oxidant and anti-inflammatory activity) [SEQ ID NO:5]			cholesterol efflux efficiency/potency on per molecule (molar) basis versus apolipoproteins (ABCA1 [1]; Km in molar units): activity similar to full-length Apo A-I, Apo E, and the C-terminal (CT) domain of Apo E; cholesterol efflux from macrophages not induced for ABCA1 (non-specific) (ABCA1 [1]): Low efflux; non-specific efflux activity in the absence of ABCA1 (ABCA1 [2]): minimal; requirement of ABCA1 for cholesterol efflux activity (ABCA1 [2]): required ABCA1 for efflux activity
CC[C@H](C)[C@H](N)C(=O)O [Isoleucine]	0.943		
R14→Q: SEQ ID NO:5 with arginine 14 replaced by glutamine (EVRSKLEEWFAAFQEFFEEFLARLKS; S1 amphipathic alpha-helix polypeptide core sequence selectively binds HDL, high-affinity ligand for ATP- binding cassette transporter A1 (ABCA1), ABCA1-lipid cholesterol efflux, ABCA1-stablization, anti-oxidant and anti-inflammatory activity)			ABCA1-dependent cholesterol efflux at 30 μg/ml (ABCA1 [1]; 30 μg/ml peptide): mediated cholesterol efflux in an ABCA1 dependent manner; efficiency of ABCA1 cholesterol efflux (concentration dependence) (ABCA1 [1]): high efficiency
C[C@@H](O)[C@H](N)C(=O)O [Threonine]	0.450		
E1, 7, 8, 15, 18, 19>D: SEQ ID NO:5 with E1, 7, 8, 15, 18, 19 replaced with D (DVRSKLDDWFAAFRDFFDDFLARLKS; S1 amphipathic alpha-helix polypeptide core sequence selectively binds HDL, high-affinity ligand for ATP- binding cassette transporter A1 (ABCA1), ABCA1-lipid cholesterol efflux, ABCA1-stablization, anti-oxidant and anti-inflammatory activity)			ABCA1-dependent cholesterol efflux (ABCA1 [1]): retained high capacity to stimulate cholesterol efflux in an ABCA1-dependent manner
NCCCC[C@H](N)C(=O)O [Lysine]	0.283		
CC(C)[C@H](N)C(=O)O [Valine]	0.825		

Molecule	Hydrophobicity [3]	cholesterol efflux: concentration giving maximal efflux [4] [µg/mL]	also measured
EVRSKLEEWFAAFREFFEEFLARL (amphipathic alpha-helix polypeptide core sequence selectively binds HDL, high-affinity ligand for ATP- binding cassette transporter A1 (ABCA1), ABCA1-lipid cholesterol efflux, ABCA1-stablization, anti-oxidant and anti-inflammatory activity) [24-mer]			capacity to stimulate cholesterol efflux at 3 μg/ml (ABCA1 [1]): retained high capacity to stimulate cholesterol efflux; also recorded: retained high activity; efficiency of ABCA1 cholesterol efflux (concentration dependence) (ABCA1 [1]): high efficience; ABCA1-dependent cholesterol efflux (ABCA1 [1]): stimulated cholesterol efflux in an ABCA1-dependent manner
NC(=O)C[C@H](N)C(=O)O [Asparagine]	0.236		
S4, 26>A: SEQ ID NO:4 with serine to alanine substitutions at positions 4 and 26 (EVRAKLEEWFAAFREFAEEFLARLKA; ATI-5261 amphipathic alpha-helix polypeptide core sequence selectively binds HDL, high-affinity ligand for ATP-binding cassette transporter A1 (ABCA1), ABCA1-lipid cholesterol efflux, ABCA1-stablization, anti-oxidant and anti- inflammatory activity)			ABCA1-dependent cholesterol efflux (ABCA1 [1]): retained ABCA1-dependent cholesterol efflux activity
E8, 15→Q8, 15: SEQ ID NO:5 with two glutamate residues replaced with glutamine (EVRSKLEQWFAAFRQFFEEFLARLKS; S1 amphipathic alpha-helix polypeptide core sequence selectively binds HDL, high-affinity ligand for ATP- binding cassette transporter A1 (ABCA1), ABCA1-lipid cholesterol efflux, ABCA1-stablization, anti-oxidant and anti-inflammatory activity)			cholesterol efflux from macrophages not induced for ABCA1 (non-specific) (ABCA1 [1]): further augmented
23-mer: SEQ ID NO:5 with three residues deleted from the C-terminal end (EVRSKLEEWFAAFREFFEEFLAR; S1 amphipathic alpha-helix polypeptide core sequence selectively binds HDL, high-affinity ligand for ATP- binding cassette transporter A1 (ABCA1), ABCA1-lipid cholesterol efflux, ABCA1-stablization, anti-oxidant and anti-inflammatory activity)			capacity to stimulate cholesterol efflux at 3 μg/ml (ABCA1 [1]): weakly active
O=C(O)[C@@H]1CCCN1 [Proline]	0.711		
EVKSKLEEWFAAFKEFFEEFLAKLKS [R3, 14, 23→K3, 14, 23 analog of the polypeptide of SEQ ID NO:5]		3	
EVRSKLEDWFAAFRDFFEEFLARLKS [E8, 15>D analog of the polypeptide of SEQ ID NO:5]		3	
EVRAKLEEWFAAFREFAEEFLARL [24-mer core peptide of SEQ ID NO:4 with the S4>A substitution]		3	
[dE][dV][dR][dS][dK][dL][dE][dE][dW][dF][dA][dA][dF][dR][dE][dF][dA][dE][dE][dF][dL][dA][dR][dL][dK][dS] [polypeptide of SEQ ID NO:4 composed of all D-amino acids]		3	
DVRSKLDDWFAAFRDFFDDFLARLKS [E1, 7, 8, 15, 18, 19>D analog of the polypeptide of SEQ ID NO:5]		3	
EVRSKLEEWFAAFREFAEEFLARLKY [S26>Y analog of the polypeptide of SEQ ID NO:4]		3	
[dS][dK][dL][dR][dA][dL][dF][dE][dE][dA][dF][dE][dR][dF][dA][dA][dF][dW][dE][dE][dL][dK][dS][dR][dV][dE] [inverted sequence peptide of SEQ ID NO:20, all D-amino acids]		3	
EVRSKLEEWFAAFREFFEEFLARL [24-mer polypeptide of SEQ ID NO:5 lacking Lys25-Ser26]		3	
EVRAKLEEWFAAFREFAEEFLARLKA [S4, 26>A analog of the polypeptide of SEQ ID NO:4]		3	
SKLRALFEEAFERFAAFWEELKSRVE [inverted sequence peptide of SEQ ID NO:20, all L-amino acids]		3	
